# B1: Flag-tagged AURKB protein (protein)
# chain: MAQKENSYPWPYGRQTAPSGLSTLPQRVLRKEPVTPSALVLMSRSNVQPTAAPGQKVMENSSGTPDILTRRHFTIDDFEIGRPLGKGKFGNVYLAREKKSHFIVALKVLFKSQIEKEGVEHQLRREIEIQAHLHHPNILRLYNYFYDRRRIYLILEYAPRGELYKELQKSCTFDEQRTATIMEELADALMYCHGKKVIHRDIKPENLLLGLKGELKIADFGWSVHAPSLRRKTMCGTLDYLPPEMIEGRMHNEKVDLWCIGVLCYELLVGNPPFESASHNETYRRIVKVDLKFPASVPMGAQDLISKLLRHNPSERLPLAQVSAHPWVRANSRRVLPPSALQSVA
# Biological target: GST-histone H3 [GST: P08515]
# Sequence (P08515 whole entry, looked up): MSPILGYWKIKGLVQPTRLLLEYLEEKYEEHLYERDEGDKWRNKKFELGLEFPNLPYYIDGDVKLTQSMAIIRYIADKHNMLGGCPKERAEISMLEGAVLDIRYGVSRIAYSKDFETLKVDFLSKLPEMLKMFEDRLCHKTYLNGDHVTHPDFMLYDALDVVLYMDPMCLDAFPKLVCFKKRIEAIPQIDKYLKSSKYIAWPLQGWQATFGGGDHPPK
protein,measurement,value
B1,"in vitro phosphorylation, read by western blot",the Flag-AURKB protein had kinase activity and can phosphorylate histone H3
